Laboratory results: article PMC4125281, “Capsid Protein VP4 of Human Rhinovirus Induces Membrane Permeability by the Formation of a Size-Selective Multimeric Pore” (PLoS Pathogens, 2014)
*: point of attachment. Myristoyl = CCCCCCCCCCCCCC(=O)*

Tests used:
[1] = target: the molecule itself; test: cross-linking; VP4His incubated with liposomes (50 uM lipid) at 25 C for 1 hr, DSP 0.5 mM or 1 mM for 20 min at 25 C; non-reducing SDS-PAGE, western blot with antisera to VP4; cross-linking reversed with 50 mM DTT in some samples
[2] = target: the molecule itself; test: SDS-PAGE without cross-linking (multimers that survive SDS); VP4His incubated with liposomes, no DSP (Fig. 5B lane 5); non-reducing SDS-PAGE, western blot with antisera to VP4

B1: recombinant myristoylated human rhinovirus 16 VP4 with six histidines at the C-terminus (VP4His) (natural protein)
chain: Myristoyl-MGAQVSRQNVGTHSTQNMVSNGSSLNYFNINYFKDAASSGASRLDFSQDPSKFTDPVKDVLEKGIPTLQ-{H2N-H2N-H2N-H2N-H2N-H2N}
notes: capsid protein VP4 of human rhinovirus 16 (HRV16), the cut product VP4 of the genome polyprotein; native VP4 about 7.4 kDa, VP4His about 8.2 kDa; Plasmid pETVP4His (pET23d); also called recombinant VP4; not shown: His6, C-terminal, kept
stoichiometry N [1]: 6 | stoichiometry N [2]: 2
